# In patent US20020082410:
# Biological target: Ipf1 (RSV-Ipf1 expression vector) (Mus musculus) (UniProt P52946)
# Test: cell_activity
# Details: betaTC1 cells with RSV-Ipf1; in CHO cells Ipf1 raised activity to the betaTC1 level (about 3-fold over CHO)
substance,measurement,value
5x P1 site linked to beta-globin TATA box reporter,activity,2 fold
